Data: paper PMC3923783, “Competitive and Cooperative Interactions Mediate RNA Transfer from Herpesvirus Saimiri ORF57 to the Mammalian Export Adaptor ALYREF”

Legend:
ORF57 8-120 [1] = molecular target: T1, ORF57 8-120 (Herpesvirus saimiri, UniProt P13199 8-120); experiment: intrinsic Trp fluorescence titration; Fluorescence: 20 mM phosphate pH 6.2, 50 mM NaCl, 50 mM L-Arg+L-Glu, 5 mM EDTA, 1 mM TCEP (temperature not stated); NMR: 20 mM phosphate pH 6.2, 50 mM NaCl, 50; conditions: protein: recombinant
T1 sequence (P13199 8-120): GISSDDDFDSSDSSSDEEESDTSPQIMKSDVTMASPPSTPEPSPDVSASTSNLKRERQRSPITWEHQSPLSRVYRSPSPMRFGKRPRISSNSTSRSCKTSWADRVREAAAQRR

[2] = molecular target: ORF57 8-120;ALYREF 1-155 (REF2-I) (Herpesvirus saimiri;mouse, UniProt P13199;Q9JJW6 8-120;1-155, |); experiment: intrinsic Trp fluorescence titration; RNA into preformed 1:1 ORF57-ALYREF complex, 10 uM; apparent macroscopic Kd; Fluorescence: 20 mM phosphate pH 6.2, 50 mM NaCl, 50 mM L-Arg+L-Glu, 5 mM EDTA, 1 mM TCEP (temperature not stated); NMR: 20 mM phosphate pH 6.2, 50 mM NaCl, 50; conditions: protein: recombinant;recombinant; tags: ;; copies: 1;1
Chain of ORF57 8-120;ALYREF 1-155 (REF2-I) (P13199 8-120, chain 1 of 2): as the sequence (P13199 8-120) above
Chain of ORF57 8-120;ALYREF 1-155 (REF2-I) (Q9JJW6 1-155, chain 2 of 2): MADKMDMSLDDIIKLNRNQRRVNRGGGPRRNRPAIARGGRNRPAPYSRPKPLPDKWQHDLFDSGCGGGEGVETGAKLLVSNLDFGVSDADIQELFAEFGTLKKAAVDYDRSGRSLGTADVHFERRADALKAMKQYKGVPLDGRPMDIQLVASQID

ORF57 8-120 [3] = molecular target: T1, ORF57 8-120; experiment: NMR (HSQC titration, saturation transfer); aa64-120 broadened beyond detection at 1:1; Fluorescence: 20 mM phosphate pH 6.2, 50 mM NaCl, 50 mM L-Arg+L-Glu, 5 mM EDTA, 1 mM TCEP (temperature not stated); NMR: 20 mM phosphate pH 6.2, 50 mM NaCl, 50; conditions: protein: recombinant
His-ORF57 8-120 WT = His-ORF57 8-120 WT (Herpesvirus saimiri, UniProt P13199 8-120); experiment: UV cross-linking; Fluorescence: 20 mM phosphate pH 6.2, 50 mM NaCl, 50 mM L-Arg+L-Glu, 5 mM EDTA, 1 mM TCEP (temperature not stated); NMR: 20 mM phosphate pH 6.2, 50 mM NaCl, 50; conditions: protein: recombinant; tags: His6; label: radioactive end label
Chain of His-ORF57 8-120 WT (P13199 8-120): as the sequence (P13199 8-120) above

CAGUCGC (ssRNA) [7merN] showed a Kd (ORF57 8-120 [1]) of 38.8 ± 0.6 µM.

CAGUCGCGAAGAGG (ssRNA) [14merS] showed a Kd [2] of 1.55 ± 0.24 µM and a Kd (ORF57 8-120 [1]) of 7.57 ± 0.06 µM.

GAAGAGG (ssRNA) [7merS]: binds (ORF57 8-120 [3]).

GAAGAGG (ssRNA) [7merS end-labeled]: binds (His-ORF57 8-120 WT).
